T1: EsCas13d, nuclease-dead (Eubacterium siraeum, UniProt B0MS50, R295A;H300A;R849A;H854A)
T1 sequence: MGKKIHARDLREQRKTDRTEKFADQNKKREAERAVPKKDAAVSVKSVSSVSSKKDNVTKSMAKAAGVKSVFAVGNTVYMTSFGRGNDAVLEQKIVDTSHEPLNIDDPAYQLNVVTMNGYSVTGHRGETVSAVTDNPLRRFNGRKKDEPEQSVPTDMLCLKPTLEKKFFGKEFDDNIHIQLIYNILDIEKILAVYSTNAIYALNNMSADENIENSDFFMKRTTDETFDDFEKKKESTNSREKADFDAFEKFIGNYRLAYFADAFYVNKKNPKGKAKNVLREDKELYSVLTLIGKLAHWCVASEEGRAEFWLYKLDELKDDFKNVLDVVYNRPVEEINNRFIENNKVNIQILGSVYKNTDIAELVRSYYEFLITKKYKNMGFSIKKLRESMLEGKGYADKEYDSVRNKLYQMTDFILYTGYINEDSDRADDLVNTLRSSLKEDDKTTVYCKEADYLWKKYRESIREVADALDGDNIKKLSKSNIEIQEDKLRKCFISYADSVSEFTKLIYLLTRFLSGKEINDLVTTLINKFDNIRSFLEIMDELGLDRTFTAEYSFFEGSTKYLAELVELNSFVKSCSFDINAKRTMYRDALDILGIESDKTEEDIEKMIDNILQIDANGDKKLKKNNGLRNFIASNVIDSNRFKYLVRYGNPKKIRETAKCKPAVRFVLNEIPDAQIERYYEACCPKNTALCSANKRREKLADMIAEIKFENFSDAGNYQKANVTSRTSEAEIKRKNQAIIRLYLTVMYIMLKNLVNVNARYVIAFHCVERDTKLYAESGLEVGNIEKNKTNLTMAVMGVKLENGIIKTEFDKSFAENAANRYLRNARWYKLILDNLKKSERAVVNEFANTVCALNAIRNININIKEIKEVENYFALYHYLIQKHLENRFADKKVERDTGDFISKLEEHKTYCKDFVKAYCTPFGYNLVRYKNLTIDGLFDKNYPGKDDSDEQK

B1: target 1 U10G,A16U (mixed)
RNA 1: CACCCGUGCAAAAAUGCAGGGGUCUAAAACUGAGCGGAUAACCUCUCUAUGG
RNA 2: GGGAAUGGAUCCACAUCUACGAAUUCGUACCAUAGUGAGGUGAUCCGCUCACCGAGAUCGGAAGAGCACACGU
B2: target 1 MT 5'PFS UAG 3'PFS AUG (mixed)
RNA 1: CACCCGUGCAAAAAUGCAGGGGUCUAAAACUGAGCGGAUAACCUCUCUAUGG
RNA 2: GGGAAUGGAUCCACAUCUACGAAUUCUAGCCAUAGAGAGGUUAUCCGCUCAAUGAGAUCGGAAGAGCACACGU
B3: target 1 MT 5'PFS GGC 3'PFS CGA (mixed)
RNA 1: CACCCGUGCAAAAAUGCAGGGGUCUAAAACUGAGCGGAUAACCUCUCUAUGG
RNA 2: GGGAAUGGAUCCACAUCUACGAAUUCGGCCCAUAGAGAGGUUAUCCGCUCACGAAGAUCGGAAGAGCACACGU
B4: target 1 MT 5'PFS CUA 3'PFS UAA (mixed)
RNA 1: CACCCGUGCAAAAAUGCAGGGGUCUAAAACUGAGCGGAUAACCUCUCUAUGG
RNA 2: GGGAAUGGAUCCACAUCUACGAAUUCCUACCAUAGAGAGGUUAUCCGCUCAUAAAGAUCGGAAGAGCACACGU
B5: target 1 MT 5'PFS UAG 3'PFS AUC (mixed)
RNA 1: CACCCGUGCAAAAAUGCAGGGGUCUAAAACUGAGCGGAUAACCUCUCUAUGG
RNA 2: GGGAAUGGAUCCACAUCUACGAAUUCUAGCCAUAGAGAGGUUAUCCGCUCAAUCAGAUCGGAAGAGCACACGU
B6: target 1 MT 5'PFS CUA 3'PFS UAC (mixed)
RNA 1: CACCCGUGCAAAAAUGCAGGGGUCUAAAACUGAGCGGAUAACCUCUCUAUGG
RNA 2: GGGAAUGGAUCCACAUCUACGAAUUCCUACCAUAGAGAGGUUAUCCGCUCAUACAGAUCGGAAGAGCACACGU
B7: target 1 MT 5'PFS GUC 3'PFS AUA (mixed)
RNA 1: CACCCGUGCAAAAAUGCAGGGGUCUAAAACUGAGCGGAUAACCUCUCUAUGG
RNA 2: GGGAAUGGAUCCACAUCUACGAAUUCGUCCCAUAGAGAGGUUAUCCGCUCAAUAAGAUCGGAAGAGCACACGU
B8: target 1 MT 5'PFS GCA 3'PFS CAU (mixed)
RNA 1: CACCCGUGCAAAAAUGCAGGGGUCUAAAACUGAGCGGAUAACCUCUCUAUGG
RNA 2: GGGAAUGGAUCCACAUCUACGAAUUCGCACCAUAGAGAGGUUAUCCGCUCACAUAGAUCGGAAGAGCACACGU
B9: target 1 U3C,C4G (mixed)
RNA 1: CACCCGUGCAAAAAUGCAGGGGUCUAAAACUGAGCGGAUAACCUCUCUAUGG
RNA 2: GGGAAUGGAUCCACAUCUACGAAUUCGUACCAUAGAGAGGUUAUCCGGCCACCGAGAUCGGAAGAGCACACGU
B10: target 1 MT 5'PFS GCA 3'PFS CAG (mixed)
RNA 1: CACCCGUGCAAAAAUGCAGGGGUCUAAAACUGAGCGGAUAACCUCUCUAUGG
RNA 2: GGGAAUGGAUCCACAUCUACGAAUUCGCACCAUAGAGAGGUUAUCCGCUCACAGAGAUCGGAAGAGCACACGU
B11: target 1 MT 5'PFS CUA 3'PFS UAG (mixed)
RNA 1: CACCCGUGCAAAAAUGCAGGGGUCUAAAACUGAGCGGAUAACCUCUCUAUGG
RNA 2: GGGAAUGGAUCCACAUCUACGAAUUCCUACCAUAGAGAGGUUAUCCGCUCAUAGAGAUCGGAAGAGCACACGU
B12: target 1 MT 5'PFS GUA 3'PFS GAC (mixed)
RNA 1: CACCCGUGCAAAAAUGCAGGGGUCUAAAACUGAGCGGAUAACCUCUCUAUGG
RNA 2: GGGAAUGGAUCCACAUCUACGAAUUCGUACCAUAGAGAGGUUAUCCGCUCAGACAGAUCGGAAGAGCACACGU
B13: target 1 MT 5'PFS UUU 3'PFS AGC (mixed)
RNA 1: CACCCGUGCAAAAAUGCAGGGGUCUAAAACUGAGCGGAUAACCUCUCUAUGG
RNA 2: GGGAAUGGAUCCACAUCUACGAAUUCUUUCCAUAGAGAGGUUAUCCGCUCAAGCAGAUCGGAAGAGCACACGU
B14: target 1 MT 5'PFS GUA 3'PFS GAG (mixed)
RNA 1: CACCCGUGCAAAAAUGCAGGGGUCUAAAACUGAGCGGAUAACCUCUCUAUGG
RNA 2: GGGAAUGGAUCCACAUCUACGAAUUCGUACCAUAGAGAGGUUAUCCGCUCAGAGAGAUCGGAAGAGCACACGU
B15: target 1 MT 5'PFS GUC 3'PFS UUG (mixed)
RNA 1: CACCCGUGCAAAAAUGCAGGGGUCUAAAACUGAGCGGAUAACCUCUCUAUGG
RNA 2: GGGAAUGGAUCCACAUCUACGAAUUCGUCCCAUAGAGAGGUUAUCCGCUCAUUGAGAUCGGAAGAGCACACGU
B16: target 1 MT 5'PFS GUC 3'PFS UUC (mixed)
RNA 1: CACCCGUGCAAAAAUGCAGGGGUCUAAAACUGAGCGGAUAACCUCUCUAUGG
RNA 2: GGGAAUGGAUCCACAUCUACGAAUUCGUCCCAUAGAGAGGUUAUCCGCUCAUUCAGAUCGGAAGAGCACACGU
B17: target 1 U8A,A9U (mixed)
RNA 1: CACCCGUGCAAAAAUGCAGGGGUCUAAAACUGAGCGGAUAACCUCUCUAUGG
RNA 2: GGGAAUGGAUCCACAUCUACGAAUUCGUACCAUAGAGAGGUUUACCGCUCACCGAGAUCGGAAGAGCACACGU
B18: target 1 MT 5'PFS GUC 3'PFS AUG (mixed)
RNA 1: CACCCGUGCAAAAAUGCAGGGGUCUAAAACUGAGCGGAUAACCUCUCUAUGG
RNA 2: GGGAAUGGAUCCACAUCUACGAAUUCGUCCCAUAGAGAGGUUAUCCGCUCAAUGAGAUCGGAAGAGCACACGU
B19: target 1 MT 5'PFS GUC 3'PFS AUC (mixed)
RNA 1: CACCCGUGCAAAAAUGCAGGGGUCUAAAACUGAGCGGAUAACCUCUCUAUGG
RNA 2: GGGAAUGGAUCCACAUCUACGAAUUCGUCCCAUAGAGAGGUUAUCCGCUCAAUCAGAUCGGAAGAGCACACGU
B20: target 1 MT 5'PFS UAG 3'PFS AUA (mixed)
RNA 1: CACCCGUGCAAAAAUGCAGGGGUCUAAAACUGAGCGGAUAACCUCUCUAUGG
RNA 2: GGGAAUGGAUCCACAUCUACGAAUUCUAGCCAUAGAGAGGUUAUCCGCUCAAUAAGAUCGGAAGAGCACACGU
B21: target 1 MT 5'PFS GUA 3'PFS GAU (mixed)
RNA 1: CACCCGUGCAAAAAUGCAGGGGUCUAAAACUGAGCGGAUAACCUCUCUAUGG
RNA 2: GGGAAUGGAUCCACAUCUACGAAUUCGUACCAUAGAGAGGUUAUCCGCUCAGAUAGAUCGGAAGAGCACACGU
B22: target 1 MT 5'PFS UAG 3'PFS AUU (mixed)
RNA 1: CACCCGUGCAAAAAUGCAGGGGUCUAAAACUGAGCGGAUAACCUCUCUAUGG
RNA 2: GGGAAUGGAUCCACAUCUACGAAUUCUAGCCAUAGAGAGGUUAUCCGCUCAAUUAGAUCGGAAGAGCACACGU
B23: target 1 MT 5'PFS GUC 3'PFS AUU (mixed)
RNA 1: CACCCGUGCAAAAAUGCAGGGGUCUAAAACUGAGCGGAUAACCUCUCUAUGG
RNA 2: GGGAAUGGAUCCACAUCUACGAAUUCGUCCCAUAGAGAGGUUAUCCGCUCAAUUAGAUCGGAAGAGCACACGU
B24: target 1 MT 5'PFS GUA 3'PFS GAA (mixed)
RNA 1: CACCCGUGCAAAAAUGCAGGGGUCUAAAACUGAGCGGAUAACCUCUCUAUGG
RNA 2: GGGAAUGGAUCCACAUCUACGAAUUCGUACCAUAGAGAGGUUAUCCGCUCAGAAAGAUCGGAAGAGCACACGU

Each binder was assayed against T1, EsCas13d, nuclease-dead (assay: crRNA (strand 1, pre-loaded); Mg2+; 40 mM Tris-HCl pH 7.5, 150 mM NaCl, 6 mM MgCl2, 1 mM DTT, 0.1% Tween-20, 0.2 mg/ml BSA; 25 C; 10 min per concentration, then washed). Details: tags: His6-TwinStrep-SUMO cleaved; N-terminal SNAP kept (SNAP-Surface 488); label: 3' end held by stalled T7 RNA polymerase.

Binder | Kd
B1 | 58 ± 10 nM
B2 | 46.5 ± 9 nM
B3 | 22 ± 7 nM
B4 | 6 ± 1.3 nM
B5 | 32 ± 9 nM
B6 | ~3.9 nM
B7 | 26 ± 7 nM
B8 | 35 ± 11 nM
B9 | 11.4 ± 0.6 nM
B10 | ~36.5 nM
B11 | 4.9 ± 0.9 nM
B12 | 14.3 ± 3.05 nM
B13 | 68 ± 27.5 nM
B14 | 16.1 ± 2.3 nM
B15 | 11.9 ± 1.75 nM
B16 | 19.1 ± 4.5 nM
B17 | 12.9 ± 0.8 nM
B18 | 24.5 ± 4 nM
B19 | 28.5 ± 11 nM
B20 | 31.3 ± 4.95 nM
B21 | 12.5 ± 1.35 nM
B22 | 31.6 ± 4.7 nM
B23 | 16.1 ± 2.15 nM
B24 | 11.8 ± 1.3 nM

From publication PMC10786891, “Massively parallel profiling of RNA-targeting CRISPR-Cas13d”
